Test in all cases: fluorescence anisotropy
(Fluorescence polarisation rises when a labelled molecule tumbles more slowly, as on binding a larger partner.)

The target in one data set is APOBEC3G (A3G) (Homo sapiens, UniProt Q9HC16 1-384).
Data set [1] has as its target HIV-1 nucleocapsid protein (NC) (HIV-1, UniProt P12493 378-432).
For data set [2], the target named is HIV-1 reverse transcriptase (RT) (HIV-1, UniProt P04585;P04585 588-1147;588-1027).

APOBEC3G (A3G), sequence (Q9HC16 whole entry): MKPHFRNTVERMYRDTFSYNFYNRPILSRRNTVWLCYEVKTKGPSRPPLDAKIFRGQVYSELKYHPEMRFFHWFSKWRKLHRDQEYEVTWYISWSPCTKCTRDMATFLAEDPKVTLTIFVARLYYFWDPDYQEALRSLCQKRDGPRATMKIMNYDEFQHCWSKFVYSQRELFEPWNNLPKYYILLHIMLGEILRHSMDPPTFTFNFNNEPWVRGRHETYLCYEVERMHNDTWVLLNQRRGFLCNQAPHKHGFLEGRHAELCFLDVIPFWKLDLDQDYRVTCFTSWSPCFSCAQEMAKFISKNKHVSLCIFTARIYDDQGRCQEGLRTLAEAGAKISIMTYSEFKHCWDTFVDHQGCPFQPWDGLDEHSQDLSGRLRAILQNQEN

B1: 5'-FAM-JL587D 20-mer (ssDNA)
DNA: CTTCTTTGGGAGTGAATTAG
Usually Kd stands for the equilibrium constant for the complex coming apart. With B1, the Kd with APOBEC3G (A3G) stood at 238 ± 95 nM; in data set [1] it was 84.1 ± 7.8 nM; in data set [2], 1840 ± 390 nM.

(Values after publication PMC2175344.)
